Results published in article PMC12867151.

Target: human immune complexes (ICs): heat-aggregated human IgG (human)

Substance: Fcγ receptor 2a (FcγRIIA), human, on human platelets (from UniProt P12318 34-317)
- neutrophil adhesion on IC-coated microcapillaries with adhered platelets at 2 dyn/cm^2; neutrophils preincubated with a blocking antibody against FcγRIIA; inhibition against the isotype control (% inhibition of neutrophil adhesion): 86.3

Substance: FcγRIIIB, human, on neutrophils (from UniProt O75015 17-200) (receptor)
- neutrophil adhesion on IC-coated microcapillaries with adhered platelets at 2 dyn/cm^2; neutrophils preincubated with a blocking antibody against FcγRIIIB; inhibition against the isotype control (% inhibition of neutrophil adhesion): 63.8
